Square brackets hold non-standard residues; d marks the D form. Ends that are not written are not given here. Lys(Me) = CNCCCC[C@H](N)C(=O)O
T1: ASHH2 CW domain (13C/15N labelled, cleaved from GST with thrombin) (Arabidopsis thaliana, UniProt Q2LAE1 850-937, limits assumed, 13C and 15N isotope labelled; binds one Zn2+ through Cys868, 871, 893, 904)
T1 construct: domain: CW domain; Free CW domain used for NMR; The structure is deposited as PDB 2l7p (printed '217p')
T1 sequence (looked up): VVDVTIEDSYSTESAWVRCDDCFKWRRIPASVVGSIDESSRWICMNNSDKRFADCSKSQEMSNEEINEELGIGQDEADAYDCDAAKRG


Experiments:
[1] = target: histone H3 trimethylated on lysine 4 in Arabidopsis seedling chromatin (nucleosomes) (Arabidopsis, UniProt P59226 2-136); test: chromatin pull-down from Arabidopsis seedlings, quantified western blot
[2] = target: histone H3 dimethylated on lysine 4 in Arabidopsis seedling chromatin (nucleosomes) (Arabidopsis, UniProt P59226 2-136); test: as above
[3] = target: histone H3 monomethylated on lysine 4 in Arabidopsis seedling chromatin (nucleosomes) (Arabidopsis, UniProt P59226 2-136); test: as above
[4] = target: T1, ASHH2 CW domain (13C/15N labelled, …); test: NMR, 15N-1H HSQC chemical shift changes, peptide:CW about 1.1:1

Row | bound chromatin relative to input chromatin [1] | bound chromatin relative to input chromatin [2] | bound chromatin relative to input chromatin [3] | binding result [4] | Binder
1 | 2.1 times of input material (2.5%) | 3.3 times of input material (2.5%) | 4.4 times of input material (2.5%) | – | GST-ASHH2-CW (other, Arabidopsis thaliana, UniProt Q2LAE1 850-937, looked up, domain: CW domain; Expressed in bacteria from pSXG (Eco RI/Bam HI); also called GST-CWASHH2; GST-tagged ASHH2 CW protein; not shown: glutathione-S-transferase (GST) tag encoded by the pSXG vector) VVDVTIEDSYSTESAWVRCDDCFKWRRIPASVVGSIDESSRWICMNNSDKRFADCSKSQEMSNEEINEELGIGQDEADAYDCDAAKRG
2 | – | – | – | binds | ART[Lys(Me)]QTARKSTGGKAY (Bought from CASLO and used for NMR at about 1.1:1 with the CW domain; also called histone H3K4me1 peptide (1-15); monomethylated H3K4 peptide) [synthetic H3 peptide (residues 1-16) ARTK(me1)QTARKSTGGKAY]

Reference: patent US20140148355A1 (UNIVERSITY OF OSLO, published 2014)
